# B1: rK5: recombinant kringle 5 fragment of human plasminogen (residues 450-543), expressed in E. coli or yeast (protein)
# chain: LLPDVETPSEEDCMFGNGKGYRGKRATTVTGTPCQDWAAQEPHRHSIFTPETNPRAGLEKNYCRNPDGDVGGPWCYTTNPRKLYDYCDVPQCAA
# How the values were obtained:
# [1] = system: HMVEC cells; assay: Apoptosis of stimulated endothelial cells (histone ELISA); assay type: cell-based, human
# Procedure: FIG. 9B is a graph showing the induction by rK5 of apoptosis in stimulated endothelial cells. The rate of apoptosis was measured in HMVEC cells using a histone detection kit (Markwell, M. A. K. Anal Biochem 1982, 125, 427-432.) HMVECs were grown in 96 well plates. Recombinant K5 at various concentrations was added to plates and incubated overnight. Apoptosis was determined from triplicate samples and the Apoptotic index was determined by dividing the absorbance from the treated cells by the absorbance from the untreated cells.
# Assessment of Cellular Apoptosis: The effects of rK5 and rK5 peptide-induced apoptosis were determined with a histone ELISA apoptosis assay (Roche, Indianapolis, Ind.)(Mayr M, Li C, Zou Y, Huemer U, Hu Y, Xu Q. Biomechanical stress-induced apoptosis in vein grafts involves p38 mitogen-activated protein kinases. FASEB J. 2000 Feb.; 14(2):261-70) Cells (5000 per well) were grown in 96 well plates. rK5 and/or an antibody to GRP78 were added to plates and incubated overnight. Apoptosis was determined from triplicate samples and the Apoptotic Index was determined by dividing the absorbance from the treated cells by the absorbance from the untreated cells.
# [2] = system: EAHY cell surface proteins (~75 kDa and ~95 kDa); assay: S-tag-K5 affinity pull-down of biotinylated EAHY surface proteins; assay type: binding; settings: 100 nM S-tag-K5; 1 μM peptides, 10 μM cold rK5
# Procedure: The second method used to identify cell surface rK5 binding proteins was described previously (Zhang, J. C., et al, supra). Surface proteins on 4×10^6 EaHy cells were labeled with NHS-biotin. The cells were washed and lysed (M-Per, Pierce). Cell lysates were mixed with S-tag K5 for 1 hour at room temperature. S-tag K5 bound proteins were precipitated with S-protein agarose (Pierce). Bound proteins were eluted with excess rK5 or with excess PRKLYDY (SEQ ID NO:1) peptide. Eluted proteins were visualized with avidin-HRP and a chemiluminescent substrate. Mass spectroscopic analysis was used to identify the major protein bands.
# In particular, surface proteins on 1×10^6 EAHY cells were labeled with NHS-biotin. The cells were washed 3× with PBS and lysed with M-pur. Cell lysates were mixed with (A) 100 nM S-tag-K5, (B) 100 nM S-tag-K5 plus 1 μM PRKLYDY, (C) 100 nM S-tag-K5 plus 10 μM cold rK5 and (D) 100 nM S-tag-K5 and N-terminal K5 peptide at 1 μM for 1 hour at room temperature. The K5 binding proteins were precipitated with S-protein-agarose. Bound proteins were eluted with 50 mM glycine buffer at pH 3.0 and run for PAGE analysis. Surface proteins (biotinylated) that bind K5 were visualized with avidin-HPR and a chemiluminescent substrate.
# [3] = system: HT1080 human fibrosarcoma cells; assay: Apoptosis of HT1080 cells under hypoxia; assay type: cell-based
# Procedure: FIG. 15A is a graph showing the effect of rK5 on HT1080 human fibrosarcoma cells under hypoxic and non-hypoxic conditions. […] cells were plated on slides overnight with complete medium. Control slides were put in the incubator at 5% CO2 and 37° C. The other slide of cells was put in a hypoxic chamber with 95% N2, 5% CO2 at 37° C. for 24 hours. GRP78 on the cell surface was detected by IHC analysis with a polyclonal antibody to GRP78 conjugated to horseradish peroxidase. The GRP78 was visualized with the DAB reagent displaying a brown color.
# FIG. 15B is a graph showing the effect of rK5 on induction of apoptosis in various tumor cell lines tested under hypoxic conditions. Cells were plated in 96-well plates overnight. Half the plates were put in hypoxic chambers overnight at 37° C. with and without 500 nM rK5. Increased apoptosis was shown by an ELISA technique that measures the number of nucleosome fragments. The apoptotic index was calculated from the apoptosis rate of control cells (without K5 and with or without hypoxia). The samples were run in quadruplicate.
# FIG. 15C is a graph showing the effect of rK5 on hypoxia-stressed HT1090 cells transfected with an siRNA and a scrambled siRNA to GRP78. The transfected cells were plated in 96 well plates and placed at 5% CO2 and 37° C. rK5 (500 nM) was added to the cells and half were incubated in an hypoxic chamber with 95% N2, 5% CO2 at 37° C. and half were incubated at 5% CO2 and 37° C. for 24 hours. Apoptosis was shown by an ELISA technique mentioned above. The samples were run in quadruplicate.
# [4] = system: caspase 7; assay: Caspase 7 activity in HT1080 cells; assay type: cell-based, human; settings: rK5 100 nM and hypoxia, overnight
# Procedure: FIG. 16 is a graph showing the effect of rK5 and hypoxia treatment on caspace 7 activity in HT1080 cells. HT1080 cells were plated in 48 well plates. rK5 at 100 nM was added to the plates. HT1080 cells were incubated overnight in hypoxic conditions (95% N2, 5% CO2) compared to controls, which were incubated in 5% CO2. Caspase 7 activity in cell lysates was detected by the activation of an ELISA fluorescent substrate (R&D Systems).
molecule,measurement,setting,value
B1,induction of endothelial cell apoptosis,[1],1 nM
same,apoptosis of stimulated endothelial cells,"[1]; overnight, FIG. 9B",induced
same,competition of protein binding to the S-tag K5 column,[2],competed
same,activity on hypoxia-stressed GRP78 siRNA transfected HT1080 cells,"[3]; hypoxia, GRP78 siRNA transfected, rK5 500 nM",significantly eliminated the activity of rK5
same,increase in apoptosis under hypoxic conditions,"[3]; hypoxic conditions, within 24 hours",greater than two-fold increase in apoptosis
same,effect on cellular apoptosis without hypoxia,[3]; without hypoxia,no significant effect
same,caspase 7 activity,[4],significant increase in caspase 7 activity
